Assay results published in the DeepSol protein solubility set.

Assay: soluble on expression in E. coli; label from the status in PepcDB or PDB records

| Sequence | soluble on expression in E. coli |
| --- | --- |
| MVQLDRFEILFNNPEQAYFAGQEISGKVIIENKEPKKVNEILLELKGRARTYWTKHSGKSRKHCSHSEPYFLEQFNPGYTHKFTVVKDGKEKERILPAGIHQVPFSYTLPKSLPSSFEGEFGHIRYTCKAICERPWDFDIVSRKAFTVVGIEDINSDPKLNEPATCVESNHAVTFCCRSAGSVTGEIRISKCGYTPGEKIDVSFKVINLSSKTRTTALRFVQQTTYKAKTFAGHEHIKNVVRVISKIDKGEVPGGSTTEWQEESITIPSLPPKLGKCKILSVTYSVELEVEQTLTVPCPIVIGSIPQLSQLLIHSKQSVQSAGNGSLPKSSIKDSPPKWDSESCVQVTITDESGQLVEELGNEMEALLSARKRVRMPSSILSELYPTMPSPYYKESFFGASDISEEKEQAQFGEASFAPKYPFYTD | not soluble |
| MVRIALEGELFKGVTSLLDQADRTAGAEIFSALYELNDPRGLEVRLQAHDHGDPKIRNVVLGNERGKKNGVEVDDADSDNRHNLHAAGVNVTDRILPDGSIPHNKFMVLEENGKPTKVLTGSTNWTSTGLATQTNNTLIIKSPLVAARYKEYWTSVKHFSELGADAPKKLQDPLEHHHHHH | not soluble |
| MVRIIVDHSLILLYSLSAFEESKYISSEEQMQISEYINVDDKIIQRWFEIRRAPTQESWEPEVILPEAIAIFEKEFTTNPNPCSHTLEELRMKTHVQVDSINKWFDERRCAAEQNIKSDSEGSEASFSLCSSWGDTDKELKVDLKMA | not soluble |
| MVRIRWFFIRHAESEANVVERWRIAGRSEAARLTERGERQARVVGEAVAIRLEQVLRVDGGDAGGVSGDAGRRRVLAPVAFTSPLLRARQTAALVLEQVAQPVKLEPVDDLAEVYQGLWEDALRSEVHTPETLQAMARNPYEFRAPGGEAQADVERRVLRAVSRMSQRVLSLLSLELEENEQTDVIVLVFTHGYVCKCLIRSVLDASPHLTGQIQVDNGALVELWLEPAAQQGALTSAAELGMWTVLRINDTWGQLTASMR | not soluble |
| MVRYYHIEMLACPECRNPRLILYVVREKRGAMPPQPERLKCRRWCYLFDRPASTVPLSTCVSSCVERDIEEGVLVCPACGRWYPIVEGIPVMMDDKYRDPERDREIASRLAGHVPEWVKLRAVAPVPLEPREAGEG | soluble |
| MVSCENLWQQALAILATQLTKPAFDTWIKASVLISLGDGVATIQVENGFVLNHLQKSYGPLLMEVLTDLTGQEITVKLITDGLEPHSLIGQESSLPMETTPKNATALNGKYTFSRFVVGPTNRMAHAASLAVAESPGREFNPLFLCGGVGLGKTHLMQAIAHYRLEMYPNAKVYYVSTERFTNDLITAIRQDNMEDFRSYYRSADFLLIDDIQFIKGKEYTQEEFFHTFNSLHEAGKQVVVASDRAPQRIPGLQDRLISRFSMGLIADIQVPDLETRMAILQKKAEYDRIRLPKEVIEYIASHYTSNIRELEGALIRAIAYTSLSNVAMTVENIAPVLNPPVEKVAAAPETIITIVAQHYQLKVEELLSNSRRREVSLARQVGMYLMRQHTDLSLPRIGEAFGGKDHTTVMYSCDKITQLQQKDWETSQTLTSLSHRINIAGQAPESLEHHHHHH | not soluble |
| MVSTTQSRSLKAMGEEIWKNKTEKINTELFTLTYGSIVAQLCQDYERDFNKVNDHLYSMGYNIGCRLIEDFLARTALPRCENLVKTSEVLSKCAFKIFLNITPNITNWSHNKDTFSLILDENPLADFVELPMDAMKSLWYSNILCGVLKGSLEMVQLDCDVWFVSDILRGDSQTEIKVKLNRILKDEIPIGED | soluble |
| MVSVSSEPVMPTALKILIAGGFGVGKTTMVGSVSEVPPLETEERMTAVSLGVDDLSGVEGKKSTTVAMDFGRITIAPELVLYLFGTPGQDRFWFMWDDLATGALAAIVLADTRRLDASFASIDFFEARDIPFAVGVNCFDGRRDCSAEQVRTALDLDPSTPVLLCDVRDRGSSKSVLLAVLEAARAQAAARLAPLGGGQLEHHHHHH | not soluble |
| MVSVSVVIATLKPRDEIEAIQCLEDQTFDDFEVIVCDKSPVTRARNEGIRQSSSDKIVFLDDDSRPQPGYLEKANDVLETEAAYAGRTIHPVDDVFARHFTAHYDWGGDPCYVDHFWGCNMGVHRDVFKTVGGWDEEMGWGHEEKELARRVRSEFDIRYDPELVVDHPYASSITDYWKKQYKLETKSPYYWSKCNVSRADQLKNIFCETFDPLNYVRITPVATMIEAGSTVAKTAGRLRGFLDHTHHEEGRGGVPDIDRPSQSPERSGLEHHHHHH | not soluble |
| MVTIVWKESKGTAKSRYKARRAELIAERRSNEALARKIALKLSGCVRADKAASLGSLRCKKADECSGSICLPNVAIYAAGYRKSKQLTAR | not soluble |
| MVTLSLPNMEGRREQLIAQVESILASAADGRVQKTKETQSVDFKEEAGRRNGPQIEPGKPENPEAADKLADEVACMANTPGGGALIVGIEDKTGRIIGTELDIDWLRQGIFTRIDVAPDVVAKRVLGQRVLAIYVAAAAEPIEDTSDRLRWRVGDSCRPVDRAEWWEYQRAQSGFDPMAQVTTATLGDARPAALALARKWDPAFAELTDEELLRGIGALDAEGFLSQAGKLLFTSLDRTAIELSIFDVHGGQVLNRVVPEPEKSCLEQLDYLEQALNVVNKNNTVVEGFVHKPVPEIPRLAVREAMLNAMIHRDWNRSEPIDVRWIELDSTLIVRSPGGFPAAITSENVLSNRAARYPALADLYRALGLVDKQGVGVDRMYQAMIALGHRPPTIEEIAGPFVETTLVGGRPVLPVLELVSSIVPEARQDDYRIAIVLYLLFQRPFITIDVVARGLQSGKEAARNALEAARQTTVAGAPLIIAHDGVWLLGNACREILRKVEPSPFSPVRYLSTDQAELTNAAMLWLSEVGDLATSDLMAMCGVSRGTAKACVDGLVDEERVVAVGGGRSRRYRLVELEHHHHHH | soluble |
| MVTQILGAMESQVGGGPAGPALPNGPLLGTNGATDDSKTNLIVNYLPQNMTQDEFKSLFGSIGDIESCKLVRDKITGQSLGYGFVNYSDPNDADKAINTLNGLKLQTKTIKVSYARPSSASIRDANLYVSGLPKTMSQKEMEQLFSQYGRIITSRILVDQVTGVSRGVGFIRFDKRIEAEEAIKGLNGQKPLGAAEPITVKFANNPSQKTGQALLTHLYQSSARRYAGPLHHQTQRFRLDNLLNMAYGVKSPLSLIARFSPIAIDGMSGLAGVGLSGGAAGAGWCIFVYNLSPEADESVLWQLFGPFGAVTNVKVIRDFTTNKCKGFGFVTMTNYDEAAMAIASLNGYRLGERVLQVSFKTSKQHKA | soluble |
| MVTVRYYATLRPITKKKEETFNGISKISELLERLKVEYGSEFTKQMYDGNNLFKNVIILVNGNNITSMKGLDTEIKDDDKIDLFPPVAGG | soluble |
| MVVEVDSMPAASSVKKPFGLRSKMGKWCCRCFPCYRESGKSNVGTSGDHDDSAMKTLRSKMGKWCHHCFPCCRGSGKSNVGASGDHDDSAMKTLRNKMGKWCCHCFPCCRGSGKSKVGAWGDYDDSAFMEPRYHVRGEDLDKLHRAAWWGKVPRKDLIVMLRDTDVNKKDKQKRTALHLASANGNSEVVKLLLDRRCQLNVLDNKKRTALIKVCSSQLYQHEAVQCQEDECALMLLEHGTDPNIPDEYGNTTLHYAIYNEDKLMAKALLLYGADIESKNKHGLTPLLLGVHEQKQQVVKFLIKKKANLNALDRYGRTALILAVCCGSASIVSLLLEQNIDVSSQDLSGQTAREYAVSSHHHVICQLLSDYKEKQMLKISSENSNPENVSRTRNK | not soluble |
| MVVGWHRPTRLHIDTQAITENVQKECQRLPEGTALFAVVKANGYGHGAVESAKAAKKGGATGFCVALLDEAIELREAGVQDPILILSVVDLAYVPLLIQYDLSVTVATQEWLEAALQQLTPESNTPLRVHLKVDTGMGRIGFLTPEETKQAVRFVQSHKEFLWEGIFTHFSTADEIDTSYFEKQAGRFKAVLAVLEELPRYVHVSNSATALWHPDVPGNMIRYGVAMYGLNPSGNKLAPSYALKPALRLTSELIHVKRLAAGEGIGYGETYVTEAEEWIGTVPIGYADGWLRHLQGFTVLVNGKRCEIVGRVCMDQCMIRLAEEVPVGPVVTLVGKDGNEENTLQMVAEKLETIHYEVACTFSQRIPREYN | soluble |
| MVVLYNECLKNHAVSLGGHALDGCGEFTPKSTTILTDPPSLRCDACGCHRNFHRRSPSDGFSQHRSPPSPLQLQPLAPVPNLLLSLSSGFFGPSDQEVKNKFTVERDVRKTAMIKKHKRTKFTAEQKVKMRGFAERAGWKINGWDEKWVREFCSEVGIERKVLKVWIHNNKYFNNGRSRDTTSSMSLNLKL | soluble |
| MVVQSDGSPEAASYTLIHFWAAYDGESRAGNVRWSRYFAKRPDSRVRYVGVSMDKNLSVFTNTLAFDQIDLSAQRLVENSKRDQMLNIYGLKIRFHSYLVDAHGIIRAVDPNPDQLETIL | not soluble |
| MVVVMNPEQIYGVSNIKSHIPVMLDIEESNYDAWRELFLTHCLSFDVMGHIDGTLLPTNANDVNWQKRDGIVKLSLYGTLTPKQFQGSFVTSSTSRDIWLRIKNQFRNNKDARALRLDSELRTKDIGDMRVADYYRKMKKLADSLRNVDVPVTDRNLVMYVLNGLNPKFDNIINVIKHRQPFPSFDDAATMLQEEEDRLKRAIKPNPTHVDHSSSSTVLACSEAPPVTNFQRSGGNQMGYRGRGRGNNIFRGRGGRFSYYNMPTFNSWNRPPFYQNSYQMWNHPWGYPPYVNTNGGNGLGLLGPRPAY | soluble |
| MWGKKDAGTELTNYQTLATNTIGMMKGVDGYAFTSGAKMTDTLIQAGAAKGMTVSGDPASGSATLWNSWGGQIVVAPDTAGGTGFNNGFTITTNKVPQSACVSISTGMSRSGGTSGIKINGNNHTDAKVTAEIASSECTADNGRTGTNTLVFNYNG | soluble |
| MWPAIIQQLSEQLGKDFHLVEKEKVHGGDINECFMVSDGIDRYFVKTNQREYLTKFTAEVENLRVMRESNTVQVPEYILHGTSKTHAYLVLNYLATKPLDDAERSYEFGVQLANLHRWGEQKEFGFDIDNYIGATVQPNPWHKKWALFFAEQRIGWQLQLMQEKGVNLTNINEFVEMVKTRLANHSPRPSLLHGDLWFGNVANIVNGPLCFDPACYWGDRECDIALAEWFGGFQPEFFQGYESVWPLDWGYEERKDIYNLYHVLNHYNQFGGHYLDEAQKLIEKILSYLEHHHHHH | not soluble |
| MWRKLTIIVVLLCLAGYAAYEQFGKSDQAAQGEQEKSEAAMKEMIASNGIEIGKSAPDFELTKLDGTNIKLSDLKGKKVILNFWATWCGPCQQEMPDMEAFYKKHKDNVEILAINYTPSEKGGGVEKVSNFAKEKGITFPILLDKNIDVTTAYKVITIPTSYFIDTKGVIQDKFIGPMTQKEMEKRIAKLK | not soluble |
| MWRLTRKIGTRIHISNQLSPIFNKAIGTVPVFRFYSSSPEQKYRKKLLEEAQKQGFNSIEELKNHLKETIESKKREFNKIDPLKELEDYQQKTQMENNNSKHLMTKSRSPLDPSAPKVPFKTLDSFLDVGKLKDLSKQEVEFLWRARWAQKDNTLCAVIPVSVYDKMMANARNNPIFVLPLPRQVQSEDAKPNEEQGMELHYIQWQFVGPQTTHCMMTSLAEYKLHQEFARPHTTLQFHSDLVKDKGIVFMNGHVEPDTNVNVQDAQLLLLNVQRFYGAMGEETPVAKQRVQLLRDFSKASPGFTVEKLISLSQSMEN | soluble |
| MWRTRVVHTTGYVYQSPVTASYNEARLTPRSSSRQNLVLNRVETIPATRSYRYIDYWGTAVTAFDLHAPHTELTVTSSSVVETERPEPLAAKATWADLQSTAVIDRFDEVLRPTPHTPASARVDAVGRRIRKCHEPSEAVVAAARWARSELDYIPGTTSVHSSGLDALEQGKGVCQDFVHLSLMVLRSMGIPCRYVSGYLHPKRDAVVGKTVDGRSHAWVQAWTGGWWHYDPTNDNEITEQYISVGVGRDYTDVSPLKGIYSGEGVTDLDVVVEITRLA | soluble |
